Test results as given in patent US20190389961A1 (INNATE PHARMA, published 2019).

T1: human CD39 mutant 19 (human, UniProt P49961 1-510)
T1 construct: Expressed on Hek-293T cells; also called M19
T1 chain: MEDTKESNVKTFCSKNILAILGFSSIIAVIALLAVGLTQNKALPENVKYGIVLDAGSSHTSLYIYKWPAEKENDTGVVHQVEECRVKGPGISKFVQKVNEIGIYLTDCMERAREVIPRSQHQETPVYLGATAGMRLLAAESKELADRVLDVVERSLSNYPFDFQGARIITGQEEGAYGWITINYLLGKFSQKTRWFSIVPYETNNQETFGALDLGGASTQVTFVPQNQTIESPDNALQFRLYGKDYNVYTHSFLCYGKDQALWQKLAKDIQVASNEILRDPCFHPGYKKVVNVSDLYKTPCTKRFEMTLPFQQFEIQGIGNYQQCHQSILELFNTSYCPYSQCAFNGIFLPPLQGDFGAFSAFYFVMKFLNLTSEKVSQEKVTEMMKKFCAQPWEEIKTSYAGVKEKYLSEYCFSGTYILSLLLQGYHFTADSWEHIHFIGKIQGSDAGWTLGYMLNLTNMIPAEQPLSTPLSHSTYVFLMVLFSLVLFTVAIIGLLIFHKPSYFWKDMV

T2: human CD39 mutant 5 (human, UniProt P49961 1-510)
T2 construct: Expressed on Hek-293T cells; also called M5
T2 chain: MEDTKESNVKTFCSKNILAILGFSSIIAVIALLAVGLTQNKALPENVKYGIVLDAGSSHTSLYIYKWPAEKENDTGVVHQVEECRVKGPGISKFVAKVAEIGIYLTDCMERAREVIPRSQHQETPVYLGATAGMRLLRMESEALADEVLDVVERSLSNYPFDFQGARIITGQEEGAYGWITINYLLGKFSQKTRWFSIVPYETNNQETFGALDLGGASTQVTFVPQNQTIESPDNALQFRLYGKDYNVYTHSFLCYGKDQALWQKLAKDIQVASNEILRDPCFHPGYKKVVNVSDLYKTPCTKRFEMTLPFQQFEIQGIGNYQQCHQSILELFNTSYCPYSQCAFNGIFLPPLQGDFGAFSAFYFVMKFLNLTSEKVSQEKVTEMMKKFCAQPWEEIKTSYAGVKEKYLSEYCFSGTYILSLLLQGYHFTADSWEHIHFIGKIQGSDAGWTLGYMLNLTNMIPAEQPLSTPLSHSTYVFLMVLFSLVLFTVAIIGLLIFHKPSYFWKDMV

T3: human CD39 mutant 11 (human, UniProt P49961 1-510)
T3 construct: Expressed on Hek-293T cells
T3 sequence: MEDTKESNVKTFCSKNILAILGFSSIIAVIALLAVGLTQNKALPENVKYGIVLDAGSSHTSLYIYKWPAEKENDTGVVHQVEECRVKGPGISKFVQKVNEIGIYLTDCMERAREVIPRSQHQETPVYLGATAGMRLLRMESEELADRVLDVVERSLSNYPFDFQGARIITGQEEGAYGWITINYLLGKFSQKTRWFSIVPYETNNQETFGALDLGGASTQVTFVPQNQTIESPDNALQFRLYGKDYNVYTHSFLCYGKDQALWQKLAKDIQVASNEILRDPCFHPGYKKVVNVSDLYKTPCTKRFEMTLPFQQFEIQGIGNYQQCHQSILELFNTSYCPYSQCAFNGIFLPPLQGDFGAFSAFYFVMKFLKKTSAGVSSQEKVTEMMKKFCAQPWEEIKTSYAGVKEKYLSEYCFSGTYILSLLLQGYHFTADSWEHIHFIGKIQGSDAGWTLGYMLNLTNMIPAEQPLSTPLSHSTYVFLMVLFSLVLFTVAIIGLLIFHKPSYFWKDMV

T4: human CD39 mutant 15 (human, UniProt P49961 1-510)
T4 construct: Expressed on Hek-293T cells; also called M15
T4 chain: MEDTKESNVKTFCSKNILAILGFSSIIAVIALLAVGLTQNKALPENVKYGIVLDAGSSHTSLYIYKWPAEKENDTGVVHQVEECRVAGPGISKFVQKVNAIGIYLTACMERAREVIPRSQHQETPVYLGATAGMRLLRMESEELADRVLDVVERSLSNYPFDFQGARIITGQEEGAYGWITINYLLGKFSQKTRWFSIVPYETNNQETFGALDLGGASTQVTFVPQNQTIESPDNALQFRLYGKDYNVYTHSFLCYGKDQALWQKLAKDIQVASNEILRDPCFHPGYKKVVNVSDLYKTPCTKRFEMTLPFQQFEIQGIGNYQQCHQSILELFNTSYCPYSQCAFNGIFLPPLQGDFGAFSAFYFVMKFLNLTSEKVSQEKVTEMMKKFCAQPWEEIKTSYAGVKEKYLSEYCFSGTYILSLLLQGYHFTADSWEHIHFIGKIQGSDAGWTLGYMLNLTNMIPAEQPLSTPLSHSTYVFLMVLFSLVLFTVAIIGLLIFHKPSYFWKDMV

T5: human CD39 (vascular CD39, NTPDase1) expressed at the surface of cells (human, UniProt P49961 1-510)
T5 construct: also called huCD39; CHO-huCD39
T5 sequence: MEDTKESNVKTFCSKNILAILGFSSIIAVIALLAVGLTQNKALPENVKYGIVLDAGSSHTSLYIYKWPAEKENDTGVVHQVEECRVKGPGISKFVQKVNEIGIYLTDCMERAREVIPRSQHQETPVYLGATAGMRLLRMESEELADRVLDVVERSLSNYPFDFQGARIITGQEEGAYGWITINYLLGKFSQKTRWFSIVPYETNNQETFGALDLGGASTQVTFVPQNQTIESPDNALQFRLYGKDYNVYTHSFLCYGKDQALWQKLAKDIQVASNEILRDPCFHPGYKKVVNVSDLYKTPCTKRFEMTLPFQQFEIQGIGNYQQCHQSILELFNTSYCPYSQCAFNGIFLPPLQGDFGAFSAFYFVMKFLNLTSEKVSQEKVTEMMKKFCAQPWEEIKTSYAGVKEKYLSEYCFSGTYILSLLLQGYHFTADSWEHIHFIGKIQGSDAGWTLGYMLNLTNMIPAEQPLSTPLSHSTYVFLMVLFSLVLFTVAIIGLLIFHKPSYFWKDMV


Experiments:
human CD39 mutant 19 [1] = target: T1, human CD39 mutant 19; assay: flow cytometry, Hek-293T cells expressing the mutant
Procedure: (§1) In order to define the epitopes of the further anti-CD39 antibodies of Example 5, they were tested for loss of binding to the panel of CD39 mutants as described in Example 1 and Table 1. Mutants were transfected in Hek-293T cells, as shown in the table 1, using numbering of SEQ ID NO: 1.Dose-ranges of test antibodies (10-2.5-0.625-0.1563-0.0391-0.0098-0.0024-0.0006 μg/ml) are tested on the 20 generated mutants by flow cytometry.

human CD39 mutant 5 [2] = target: T2, human CD39 mutant 5; assay: as above
Procedure: as §1

human CD39 mutant 11 = target: T3, human CD39 mutant 11; assay: as above
Procedure: as §1

human CD39 mutant 15 [3] = target: T4, human CD39 mutant 15; assay: as above
Procedure: as §1

human CD39 mutant 15 [4] = target: T4, human CD39 mutant 15; assay: flow cytometry on Hek-293T cells expressing CD39 mutant 15 (panel M15)
Procedure: as §1

human CD39 mutant 19 [5] = target: T1, human CD39 mutant 19; assay: flow cytometry on Hek-293T cells expressing CD39 mutant 19 (panel M19); unstained (US) median 8,98; antibody concentration not shown
Procedure: (§2) Mutants were transfected in Hek-293T cells, as shown in the table 1, using numbering of SEQ ID NO: 1. […] Mutant 19 includes substitutions at residues R138, M139 and E142.
as §1

human CD39 mutant 5 [6] = target: T2, human CD39 mutant 5; assay: flow cytometry on Hek-293T cells expressing CD39 mutant 5 (panel M5); unstained (US) median 8,98; antibody concentration not shown
Procedure: as §2, §1

human CD39 mutant 15 [7] = target: T4, human CD39 mutant 15; assay: flow cytometry on Hek-293T cells expressing CD39 mutant 15 (panel M15); unstained (US) median 8,98; antibody concentration not shown
Procedure: as §2, §1

[8] = target: T5, human CD39 (vascular CD39, NTPDase1) …; assay: flow cytometry on Hek-293T cells expressing wild-type CD39 (panel WT); unstained (US) median 10,3; antibody concentration not shown
Procedure: as §2, §1

human CD39 mutant 19 [9] = target: T1, human CD39 mutant 19; assay: flow cytometry on Hek-293T cells expressing CD39 mutant 19 (panel M19)
Procedure: as §2, §1

human CD39 mutant 5 [10] = target: T2, human CD39 mutant 5; assay: flow cytometry on Hek-293T cells expressing CD39 mutant 5 (panel M5)
Procedure: as §1

| binding result (human CD39 mutant 19 [1]) | binding result (human CD39 mutant 5 [2]) | binding result (human CD39 mutant 15 [3]) | binding result (human CD39 mutant 15 [4]) | Median : Comp-Alexa Fluor 647-A (human CD39 mutant 19 [5]) | Median : Comp-Alexa Fluor 647-A (human CD39 mutant 5 [6]) | Median : Comp-Alexa Fluor 647-A (human CD39 mutant 15 [7]) | Median : Comp-Alexa Fluor 647-A [8] | binding result (human CD39 mutant 19 [9]) | binding result (human CD39 mutant 5 [10]) | Binder | binding result (human CD39 mutant 11) |
| --- | --- | --- | --- | --- | --- | --- | --- | --- | --- | --- | --- |
| binds | binds | binds |  |  |  |  |  |  |  | antibody I-399 (antibody, V domains shown) VH: PVQLQQPGAEVVMPGASVKLSCKASGYTFTSFWMNWMRQRPGQGLEWIGEIDPSDFYTNSNQRFKGKATLTVDKSSSTAYMQLSSLTSEDSAVYFCARGDFGWYFDVWGTGTSVTVSS VL: EIVLTQSPTTMTSSPGEKITFTCSASSSINSNYLHWYQQKPGFSPKLLIYRTSNLASGVPTRFSGSGSGTSYSLTIGTMEAEDVATYYCQQGSSLPRTFGGGTKLEIK | no binding (tested: dose range up to 10 µg/ml) |
|  |  |  | no binding | 8890 | 8190 | 35.9 | 4340 |  |  | antibody I-396 (antibody, V domains shown) VH: EVQLQQSGAELVKPGASVKLSCIVSGFNIKDTYINWVKQRPEQGLEWIGRIDPANGNTKYDPKFQGKATMTSDTSSNTAYLHLSSLTSDDSAVYYCARWGYDDEEADYFDSWGQGTTLTVSS VL: not shown |  |
|  |  |  |  | 15.4 | 52.6 | 5750 | 4240 | no binding | no binding | antibody I-395 (antibody, V domains shown) VH: EVQLQQSGPELVKPGASVRMSCKASGYTFTDYNMHWVKKNHGKGLEWIGYINPNNGGTTYNQKFKGKATLTVNTSSKTAYMELRSLTSEDSAVYYCTRGGTRFASWGQGTLVTVSA VL: not shown |  |
